# Measurements from the supplement of paper PMC11316812.
# ± gives the standard deviation of the averaged measurements.
# Legend:
# hTERT-HMEC = assay: percentage of EdU-negative (G0-arrested) nuclei per well, 72 h; higher = more G0 arrest; settings: reference: sequence is the full UniProt precursor, the tested protein was the secreted form or ectodomain
# MCF7 = assay: as above; settings: reference: sequence is the full UniProt precursor, the tested protein was the secreted form or ectodomain
# [1] = protein concentration 0.0075 µM
# [2] = protein concentration 0.0225 µM
# [3] = protein concentration 0.01477 µM
# [4] = protein concentration 0.03125 µM
# [5] = protein concentration 0.1477 µM
# [6] = protein concentration 0.3125 µM
# [7] = protein concentration 0.02075 µM
# [8] = protein concentration 0.2075 µM
# [9] = protein concentration 0.01025 µM
# [10] = protein concentration 0.1025 µM
# 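Note: secreted proteins added to cultured cells, EdU pulse at the end, nuclei found by Hoechst imaging, EdU status from nuclear versus surrounding ring intensity ratio, PBS as neutral control.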
sequence,measurement,setting,value
MAFPPRRRLRLGPRGLPLLLSGLLLPLCRAFNLDVDSPAEYSGPEGSYFGFAVDFFVPSASSRMFLLVGAPKANTTQPGIVEGGQVLKCDWSSTRRCQPIEFDATGNRDYAKDDPLEFKSHQWFGASVRSKQDKILACAPLYHWRTEMKQEREPVGTCFLQDGTKTVEYAPCRSQDIDADGQGFCQGGFSIDFTKADRVLLGGPGSFYWQGQLISDQVAEIVSKYDPNVYSIKYNNQLATRTAQAIFDDSYLGYSVAVGDFNGDGIDDFVSGVPRAARTLGMVYIYDGKNMSSLYNFTGEQMAAYFGFSVAATDINGDDYADVFIGAPLFMDRGSDGKLQEVGQVSVSLQRASGDFQTTKLNGFEVFARFGSAIAPLGDLDQDGFNDIAIAAPYGGEDKKGIVYIFNGRSTGLNAVPSQILEGQWAARSMPPSFGYSMKGATDIDKNGYPDLIVGAFGVDRAILYRARPVITVNAGLEVYPSILNQDNKTCSLPGTALKVSCFNVRFCLKADGKGVLPRKLNFQVELLLDKLKQKGAIRRALFLYSRSPSHSKNMTISRGGLMQCEELIAYLRDESEFRDKLTPITIFMEYRLDYRTAADTTGLQPILNQFTPANISRQAHILLDCGEDNVCKPKLEVSVDSDQKKIYIGDDNPLTLIVKAQNQGEGAYEAELIVSIPLQADFIGVVRNNEALARLSCAFKTENQTRQVVCDLGNPMKAGTQLLAGLRFSVHQQSEMDTSVKFDLQIQSSNLFDKVSPVVSHKVDLAVLAAVEIRGVSSPDHVFLPIPNWEHKENPETEEDVGPVVQHIYELRNNGPSSFSKAMLHLQWPYKYNNNTLLYILHYDIDGPMNCTSDMEINPLRIKISSLQTTEKNDTVAGQGERDHLITKRDLALSEGDIHTLGCGVAQCLKIVCQVGRLDRGKSAILYVKSLLWTETFMNKENQNHSYSLKSSASFNVIEFPYKNLPIEDITNSTLVTTNVTWGIQPAPMPVPVWVIILAVLAGLLLLAVLVFVMYRMGFFKRVRPPQEEQEREQLQPHENGEGNSET,percentage of EdU-negative,hTERT-HMEC; [1],5.23 ± 0.5%
same,percentage of EdU-negative,hTERT-HMEC; protein concentration 0.075 µM,7.03 ± 1%
same,percentage of EdU-negative,MCF7; [1],25.7 ± 3.1%
same,percentage of EdU-negative,MCF7; protein concentration 0.075 µM,28.8 ± 2%
MAFRGWRPPPPPLLLLLLWVTGQAAPVAGLGSDAELQIERRFVPDECPRTVRSGDFVRYHYVGTFPDGQKFDSSYDRDSTFNVFVGKGQLITGMDQALVGMCVNERRFVKIPPKLAYGNEGVSGVIPPNSVLHFDVLLMDIWNSEDQVQIHTYFKPPSCPRTIQVSDFVRYHYNGTFLDGTLFDSSHNRMKTYDTYVGIGWLIPGMDKGLLGMCVGEKRIITIPPFLAYGEDGDGKDIPGQASLVFDVALLDLHNPKDSISIENKVVPENCERISQSGDFLRYHYNGTLLDGTLFDSSYSRNRTFDTYIGQGYVIPGMDEGLLGVCIGEKRRIVVPPHLGYGEEGRGNIPGSAVLVFDIHVIDFHNPSDSISITSHYKPPDCSVLSKKGDYLKYHYNASLLDGTLLDSTWNLGKTYNIVLGSGQVVLGMDMGLREMCVGEKRTVIIPPHLGYGEAGVDGEVPGSAVLVFDIELLELVAGLPEGYMFIWNGEVSPNLFEEIDKDGNGEVLLEEFSEYIHAQVASGKGKLAPGFDAELIVKNMFTNQDRNGDGKVTAEEFKLKDQEAKHDEL,percentage of EdU-negative,hTERT-HMEC; [2],5.15 ± 0.31%
same,percentage of EdU-negative,hTERT-HMEC; protein concentration 0.225 µM,25.4 ± 1.1%
same,percentage of EdU-negative,MCF7; [2],29.6 ± 1.2%
same,percentage of EdU-negative,MCF7; protein concentration 0.225 µM,28.6 ± 3%
MAFSGSQAPYLSPAVPFSGTIQGGLQDGLQITVNGTVLSSSGTRFAVNFQTGFSGNDIAFHFNPRFEDGGYVVCNTRQNGSWGPEERKTHMPFQKGMPFDLCFLVQSSDFKVMVNGILFVQYFHRVPFHRVDTISVNGSVQLSYISFQNPRTVPVQPAFSTVPFSQPVCFPPRPRGRRQKPPGVWPANPAPITQTVIHTVQSAPGQMFSTPAIPPMMYPHPAYPMPFITTILGGLYPSKSILLSGTVLPSAQRFHINLCSGNHIAFHLNPRFDENAVVRNTQIDNSWGSEERSLPRKMPFVRGQSFSVWILCEAHCLKVAVDGQHLFEYYHRLRNLPTINRLEVGGDIQLTHVQT,percentage of EdU-negative,hTERT-HMEC; [3],5.5 ± 0.22%
same,percentage of EdU-negative,hTERT-HMEC; [4],4.97 ± 0.35%
same,percentage of EdU-negative,hTERT-HMEC; [5],9.26 ± 0.15%
same,percentage of EdU-negative,hTERT-HMEC; [6],4.66 ± 0.35%
same,percentage of EdU-negative,MCF7; [3],30.2 ± 1.1%
same,percentage of EdU-negative,MCF7; [4],26.3 ± 2.5%
same,percentage of EdU-negative,MCF7; [5],39.3 ± 0.83%
same,percentage of EdU-negative,MCF7; [6],26.3 ± 0.4%
MAFVCLAIGCLYTFLISTTFGCTSSSDTEIKVNPPQDFEIVDPGYLGYLYLQWQPPLSLDHFKECTVEYELKYRNIGSETWKTIITKNLHYKDGFDLNKGIEAKIHTLLPWQCTNGSEVQSSWAETTYWISPQGIPETKVQDMDCVYYNWQYLLCSWKPGIGVLLDTNYNLFYWYEGLDHALQCVDYIKADGQNIGCRFPYLEASDYKDFYICVNGSSENKPIRSSYFTFQLQNIVKPLPPVYLTFTRESSCEIKLKWSIPLGPIPARCFDYEIEIREDDTTLVTATVENETYTLKTTNETRQLCFVVRSKVNIYCSDDGIWSEWSDKQCWEGEDLSKKTLLRFWLPFGFILILVIFVTGLLLRKPNTYPKMIPEFFCDT,percentage of EdU-negative,hTERT-HMEC; [7],4.91 ± 0.34%
same,percentage of EdU-negative,hTERT-HMEC; [8],9.86 ± 0.6%
same,percentage of EdU-negative,MCF7; [7],26.8 ± 0.36%
same,percentage of EdU-negative,MCF7; [8],29.3 ± 0.53%
MAGGRETCLPLIGFILICLKMVASAKSAPEIPTIDQAYSKLSNSITVEWATVPGATSYLLTAEDGDTVIETTVANSPGTVTGLKAATWYEITIRSISAAGRSQASPPKQAKTVLAAPILEVSSPSSDSILVQWEAVYMAIAFSVSIMRANGLGSIWKENTTNTSLTFTSLEAGTLYTIKAYAWNANRIPGDDSTCNQRTSPRAPANIQVSFDSGALKASFSWARAEGAFNYTVMALSDSSELTCSTTFSSCTISSLQCGTEYLISVLASNDAGSSKSSSAMTLKTVACAPGRVTIQEDPPGHLSVAWSSVDLGDYYVVFVKSDDGLEVHCNTSLTQCNFLSECGFTYFISVFVYNKAGQSPLGDIFNYTTAPCCPSDINPVLVSSDRVEIVWSPVRGAELYETKAVDGYNMVECNDTTPACTLSALECDTKYNITVYSFNEVRGSNMSCTPQFITTAPCSPEIKNVSRDAFSMINVHWRSTNDDATYTVTAQGEKGLYQCSSTGESCTMRGLPCGSVFSVTAVAETQAGRSLPSYSVPLETVPCCPTGLTVTQITQSVINVSWTIGRVAQTHVAVLESHTGQSKCHTHQNHCLLGCITCGINYTVTLKAISATGLTADCSYQSYFSGACCPLGVKLYRLGPNGIRIYWQASRGSANYSTDLYGSKGIFTCTPSAGLSFCDVTEIPCGDVYTVMVSPVAKTGLKLTFCPKKIYSVTCSGSTLGMVIYRGKRNEE [Q5VTL7],percentage of EdU-negative,hTERT-HMEC; [9],4.97 ± 0.23%
same,percentage of EdU-negative,hTERT-HMEC; [10],35.6 ± 3.5%
same,percentage of EdU-negative,MCF7; [9],25.3 ± 0.94%
same,percentage of EdU-negative,MCF7; [10],35.5 ± 1%
